Target: GST fusion IRF7 (GST fused to amino acids 422-457 of mouse IRF-7, from pGST-IRF7) [GST: P08515]

B1: 6myc-mIKKα (wild-type mouse IKKα with 6 myc tags, expressed from pSRα-6myc-mIKKα in 293T cells) (protein)
chain: MERPPGLRPGAGGPWEMRERLGTGGFGNVSLYQHRELDLKIAIKSCRLELSSKNRERWCHEIQIMKKLDHANVVKACDVPEELNFLINDVPLLAMEYCSGGDLRKLLNKPENCCGLKESQILSLLSDIGSGIRYLHENKIIHRDLKPENIVLQDVGGKTIHKIIDLGYAKDVDQGSLCTSFVGTLQYLAPELFENKPYTATVDYWSFGTMVFECIAGYRPFLHHLQPFTWHEKIKKKDPKCIFACEEMTGEVRFSSHLPQPNSLCSLIVEPMESWLQLMLNWDPQQRGGPIDLTLKQPRCFALMDHILNLKIVHILNMTSAKIISFLLPCDESLHSLQSRIERETGINTGSQELLSETGISLDPRKPASQCVLDGVRGCDSYMVYLFDKSKTVYEGPFASRSLSDCVNYIVQDSKIQLPIIQLRKVWAEAVHYVSGLKEDYSRLFQGQRAAMLSLLRYNANLTKMKNTLISASQQLKAKLEFFRKSIQLDLERYSEQMTYGISSEKMLKAWKEMEEKAIHYSEVGVIGYLEDQIMSLHTEIMELQKSPYGRRQGDLMESLEQRAIDLYKQLKHRPPDHLYSDSTEMVKIIVHTVQSQDRVLKELFGHLSKLLGCKQKIIDLLPKVEVALSNIKEADNTVMFMQGKRQKEIWHLLKIACTQSSARSLVGSSLEGTVTPPVSAWLPPTLADREHPLTCVVTPQDGETLAQMIEENLNCLGHLSTIIREANEDQSSSLMSLDWSWLAE
phosphorylation of substrate (in vitro kinase assay with [γ-32P]ATP, SDS-PAGE and autoradiography): IRF7 was phosphorylated by IKKα
